Reference: PMC5603524, “An alternate mode of oligomerization for E. coli SecA” (Scientific Reports, 2017)
“And” between values parts separate entries of the source, which are not always exact repeats. Equal entries are not always repeated.

B1: H6-SecA-N68 (domain or fragment, E. coli, UniProt P10408 6-610, looked up)
chain: LTKVFGSRNDRTLRRMRKVVNIINAMEPEMEKLSDEELKGKTAEFRARLEKGEVLENLIPEAFAVVREASKRVFGMRHFDVQLLGGMVLNERCIAEMRTGEGKTLTATLPAYLNALTGKGVHVVTVNDYLAQRDAENNRPLFEFLGLTVGINLPGMPAPAKREAYAADITYGTNNEYGFDYLRDNMAFSPEERVQRKLHYALVDEVDSILIDEARTPLIISGPAEDSSEMYKRVNKIIPHLIRQEKEDSETFQGEGHFSVDEKSRQVNLTERGLVLIEELLVKEGIMDEGESLYSPANIMLMHHVTAALRAHALFTRDVDYIVKDGEVIIVDEHTGRTMQGRRWSDGLHQAVEAKEGVQIQNENQTLASITFQNYFRLYEKLAGMTGTADTEAFEFSSIYKLDTVVVPTNRPMIRKDLPDLVYMTEAEKIQAIIEDIKERTAKGQPVLVGTISIEKSELVSNELTKAGIKHNVLNAKFHANEAAIVAQAGYPAAVTIATNMAGRGTDIVLGGSWQAEVAALENPTAEQIEKIKADWQVRHDAVLEAGGLHIIGTERHESRRIDNQLRGRSGRQGDAGSSRFYLSMEDALMRIFASDRVSGMMRKL
notes: SecA, E. coli, residues 6 to 610; lacks the C-terminal helical domains; The tag MHHHHHH stands in place of the first residues of SecA and was not removed; also called His6-SecA-N68; N-terminal histidine-tagged version of SecA-N68; not shown: His6 (MHHHHHH), N-terminal, kept
B2: SecA-N95ΔN (domain or fragment, E. coli, UniProt P10408 15-835, looked up)
chain: DRTLRRMRKVVNIINAMEPEMEKLSDEELKGKTAEFRARLEKGEVLENLIPEAFAVVREASKRVFGMRHFDVQLLGGMVLNERCIAEMRTGEGKTLTATLPAYLNALTGKGVHVVTVNDYLAQRDAENNRPLFEFLGLTVGINLPGMPAPAKREAYAADITYGTNNEYGFDYLRDNMAFSPEERVQRKLHYALVDEVDSILIDEARTPLIISGPAEDSSEMYKRVNKIIPHLIRQEKEDSETFQGEGHFSVDEKSRQVNLTERGLVLIEELLVKEGIMDEGESLYSPANIMLMHHVTAALRAHALFTRDVDYIVKDGEVIIVDEHTGRTMQGRRWSDGLHQAVEAKEGVQIQNENQTLASITFQNYFRLYEKLAGMTGTADTEAFEFSSIYKLDTVVVPTNRPMIRKDLPDLVYMTEAEKIQAIIEDIKERTAKGQPVLVGTISIEKSELVSNELTKAGIKHNVLNAKFHANEAAIVAQAGYPAAVTIATNMAGRGTDIVLGGSWQAEVAALENPTAEQIEKIKADWQVRHDAVLEAGGLHIIGTERHESRRIDNQLRGRSGRQGDAGSSRFYLSMEDALMRIFASDRVSGMMRKLGMKPGEAIEHPWVTKAIANAQRKVESRNFDIRKQLLEYDDVANDQRRAIYSQRNELLDVSDVSETINSIREDVFKATIDAYIPPQSLEEMWDIPGLQERLKNDFDLDLPIAEWLDKEPELHEETLRERILAQSIEVYQRKEEVVGAEMMRHFEKGVMLQTLDSLWKEHLAAMDYLRQGIHLRGYAQKDPKQEYKRESFSMFAAMLESLKYEVISTLSKVQVRMPE
notes: SecA, E. coli, first 14 N-terminal residues removed, truncated at residue 835; also called SecA-N95∆N; SecA-N95ΔN14
B3: SecA-N68 with a wild-type N-terminus (domain or fragment, E. coli, UniProt P10408 1-610, looked up)
chain: MLIKLLTKVFGSRNDRTLRRMRKVVNIINAMEPEMEKLSDEELKGKTAEFRARLEKGEVLENLIPEAFAVVREASKRVFGMRHFDVQLLGGMVLNERCIAEMRTGEGKTLTATLPAYLNALTGKGVHVVTVNDYLAQRDAENNRPLFEFLGLTVGINLPGMPAPAKREAYAADITYGTNNEYGFDYLRDNMAFSPEERVQRKLHYALVDEVDSILIDEARTPLIISGPAEDSSEMYKRVNKIIPHLIRQEKEDSETFQGEGHFSVDEKSRQVNLTERGLVLIEELLVKEGIMDEGESLYSPANIMLMHHVTAALRAHALFTRDVDYIVKDGEVIIVDEHTGRTMQGRRWSDGLHQAVEAKEGVQIQNENQTLASITFQNYFRLYEKLAGMTGTADTEAFEFSSIYKLDTVVVPTNRPMIRKDLPDLVYMTEAEKIQAIIEDIKERTAKGQPVLVGTISIEKSELVSNELTKAGIKHNVLNAKFHANEAAIVAQAGYPAAVTIATNMAGRGTDIVLGGSWQAEVAALENPTAEQIEKIKADWQVRHDAVLEAGGLHIIGTERHESRRIDNQLRGRSGRQGDAGSSRFYLSMEDALMRIFASDRVSGMMRKL
notes: NBD1, PPXD and NBD2 with the unstructured N- and C-termini
B4: SecA-N95 (domain or fragment, E. coli, UniProt P10408 1-835, looked up)
chain: MLIKLLTKVFGSRNDRTLRRMRKVVNIINAMEPEMEKLSDEELKGKTAEFRARLEKGEVLENLIPEAFAVVREASKRVFGMRHFDVQLLGGMVLNERCIAEMRTGEGKTLTATLPAYLNALTGKGVHVVTVNDYLAQRDAENNRPLFEFLGLTVGINLPGMPAPAKREAYAADITYGTNNEYGFDYLRDNMAFSPEERVQRKLHYALVDEVDSILIDEARTPLIISGPAEDSSEMYKRVNKIIPHLIRQEKEDSETFQGEGHFSVDEKSRQVNLTERGLVLIEELLVKEGIMDEGESLYSPANIMLMHHVTAALRAHALFTRDVDYIVKDGEVIIVDEHTGRTMQGRRWSDGLHQAVEAKEGVQIQNENQTLASITFQNYFRLYEKLAGMTGTADTEAFEFSSIYKLDTVVVPTNRPMIRKDLPDLVYMTEAEKIQAIIEDIKERTAKGQPVLVGTISIEKSELVSNELTKAGIKHNVLNAKFHANEAAIVAQAGYPAAVTIATNMAGRGTDIVLGGSWQAEVAALENPTAEQIEKIKADWQVRHDAVLEAGGLHIIGTERHESRRIDNQLRGRSGRQGDAGSSRFYLSMEDALMRIFASDRVSGMMRKLGMKPGEAIEHPWVTKAIANAQRKVESRNFDIRKQLLEYDDVANDQRRAIYSQRNELLDVSDVSETINSIREDVFKATIDAYIPPQSLEEMWDIPGLQERLKNDFDLDLPIAEWLDKEPELHEETLRERILAQSIEVYQRKEEVVGAEMMRHFEKGVMLQTLDSLWKEHLAAMDYLRQGIHLRGYAQKDPKQEYKRESFSMFAAMLESLKYEVISTLSKVQVRMPE
notes: SecA, E. coli, truncated at residue 835 (stop codon after residue 835); source: E. coli BL21(DE3), purified (ammonium sulfate, PhenylSepharose, Cibacron Blue Sepharose, MonoQ)

Columns and labels:
SecA-N68∆N (E. coli) = SecA-N68∆N (E. coli) (UniProt P10408); assay: AUC; sedimentation velocity, 20 °C, 50 mM Tris-HCl pH 7.5, 100 mM KCl, 2 mM EDTA, 5 mM MgCl2, 5 mM TCEP-HCl; SedFit analysis at a range of concentrations
SecA-N68∆C (E. coli) = SecA-N68∆C (E. coli) (UniProt P10408); assay: as above
[1] = target: the molecule itself; assay: SEC; analytical gel filtration, Superdex 200 HR 10/30, 50 mM Tris-HCl pH 7.5, 100 mM KCl, 1 mM EDTA, 5 mM MgCl2, 5 mM β-mercaptoethanol, room temperature; H6-SecA-N68 applied at up to 4 mg/mL, SecA-N68∆NC at 10 mg/mL
[2] = target: the molecule itself; assay: AUC; sedimentation equilibrium, 20 °C, 50 mM Tris-HCl pH 7.5, 100 mM KCl, 2 mM EDTA, 5 mM MgCl2; global fit of nine curves at three rotor speeds; dimer to monomers
[3] = target: the molecule itself; assay: AUC; sedimentation velocity, 20 °C, 50 mM Tris-HCl pH 7.5, 100 mM KCl, 2 mM EDTA, 5 mM MgCl2, 5 mM TCEP-HCl; SedFit analysis at a range of concentrations

Molecule | Kd [2] [µM] | stoichiometry N [3] | other results
SecA-N68∆N (from UniProt P10408 15-610) (domain or fragment) |  |  | relative amount of the dimer at 4 mg/mL (SecA-N68∆N (E. coli)): 50%; stoichiometry N (SecA-N68∆N (E. coli)): 2
SecA-N68∆C (from UniProt P10408 1-590) (domain or fragment) |  |  | stoichiometry N (SecA-N68∆C (E. coli)): 2
B1 |  |  | binding result [1]: binds
B2 | 24.5 | 2 | 
B3 |  | 2 and 4 | 
B4 | < 1 | 2 | 
